# B1: BBSome complex member BBS4 (Homo sapiens), Q96RK4 (parent)
# chain: MAEERVATRTQFPVSTESQKPRQKKAPEFPILEKQNWLIHLHYIRKDYEACKAVIKEQLQETQGLCEYAIYVQALIFRLEGNIQESLELFQTCAVLSPQSADNLKQVARSLFLLGKHKAAIEVYNEAAKLNQKDWEISHNLGVCYIYLKQFNKAQDQLHNALNLNRHDLTYIMLGKIHLLEGDLDKAIEVYKKAVEFSPENTELLTTLGLLYLQLGIYQKAFEHLGNALTYDPTNYKAILAAGSMMQTHGDFDVALTKYRVVACAVPESPPLWNNIGMCFFGKKKYVAAISCLKRANYLAPFDWKILYNLGLVHLTMQQYASAFHFLSAAINFQPKMGELYMLLAVALTNLEDIENAKRAYAEAVHLDKCNPLVNLNYAVLLYNQGEKKNALAQYQEMEKKVSLLKDNSSLEFDSEMVEMAQKLGAALQVGEALVWTKPVKDPKSKHQTTSTSKPASFQQPLGSNQALGQAMSSAAAYRTLPSGAGGTSQFTKPPSLPLEPEPAVESSPTETSEQIREK
# partner: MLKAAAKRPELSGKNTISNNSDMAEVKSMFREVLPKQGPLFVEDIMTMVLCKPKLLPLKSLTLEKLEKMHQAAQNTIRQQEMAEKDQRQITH
# Variants of: B1
# Details: with bbip1_human BBIP1, A8MTZ0
row,Variant,effect of a mutation on the interaction
1,MAEERVATRTQFPVSTESQKPRQKKAPEFPILEKQNWLIHLHYIRKDYEACKAVIKEQLQETQGLCEYAIYVQALIFRLEGNIQESLELFQTCAVLSPQSADNLKQVARSLFLLGKHKAAIEVYNEAAKLNQKDWEISHNLGVCYIYLKQFNKAQDQLHNALNLNRHDLTYIMLGKIHLLEGDLDKAIEVYKKAVEFSPENTELLTTLGLLYLQLGIYQKAFEHLGNALTYDPTNYKAILAAGSMMQTHGDFDVALTKYRVVACAVPESPPLWNNIGMCFFGKKKYVAAISCLKRANYLAPFDWKILYNLGLVHLTMQQYASAFHFLSAAINFQPKMGELYMLLAVALTNLEDIENAKRAYAEAVHLDKCNPLVNLNYAELLYNQGEKKNALAQYQEMEKKVSLLKDNSSLEFDSEMVEMAQKLGAALQVGEALVWTKPVKDPKSKHQTTSTSKPASFQQPLGSNQALGQAMSSAAAYRTLPSGAGGTSQFTKPPSLPLEPEPAVESSPTETSEQIREK [V380E],with no effect
2,MAEERVATRTQFPVSTESQKPRQKKAPEFPILEKQNWLIHLHYIRKDYEACKAVIKEQLQETQGLCEYAIYVQALIFRLEGNIQESLELFQTCAVLSPQSADNLKQVARSLFLLGKHKAAIEVYNEAAKLNQKDWEISHNLGVCYIYLKQFNKAQDQLHNALNLNRHDLTYIMLGKIHLLEGDLDKAIEVYKKAVEFSPENTELLTTLGLLYLQLGIYQKAFEHLGNALTYDPTNYKAILAAGSMMQTHGDFDVALTKYRVVACAVPESPPLWNNIGMCFFGKKKYVAAISCLKRANYLAPFDWKILYNLGLVHLTMQQYASAFHFLSAAINFQPKMGELYMLLAVALTNLEDIENAKRAYAEAVHLDKCNPLVNLNYAVLLYNQGEKKNKLAQYQEMEKKVSLLKDNSSLEFDSEMVEMAQKLGAALQVGEALVWTKPVKDPKSKHQTTSTSKPASFQQPLGSNQALGQAMSSAAAYRTLPSGAGGTSQFTKPPSLPLEPEPAVESSPTETSEQIREK [A391K],with no effect
3,MAEERVATRTQFPVSTESQKPRQKKAPEFPILEKQNWLIHLHYIRKDYEACKAVIKEQLQETQGLCEYAIYVQALIFRLEGNIQESLELFQTCAVLSPQSADNLKQVARSLFLLGKHKAAIEVYNEAAKLNQKDWEISHNLGVCYIYLKQFNKAQDQLHNALNLNRHDLTYIMLGKIHLLEGDLDKAIEVYKKAVEFSPENTELLTTLGLLYLQLGIYQKAFEHLGNALTYDPTNYKAILAAGSMMQTHGDFDVALTKYRVVACAVPESPPLWNNIGMCFFGKKKYVAAISCLKRANYLAPFDWKILYNLGLVHLTMQQYASAFHFLSAAINFQPKMGELYMLLAVALTNLEDIENAKRAYAEAVHLDKCNPLVNLNYAVLLYNQGEKKNALAQYQEMEKKVSLLKDNASLEFDSEMVEMAQKLGAALQVGEALVWTKPVKDPKSKHQTTSTSKPASFQQPLGSNQALGQAMSSAAAYRTLPSGAGGTSQFTKPPSLPLEPEPAVESSPTETSEQIREK [S409A],with no effect
4,MAEERVATRTQFPVSTESQKPRQKKAPEFPILEKQNWLIHLHYIRKDYEACKAVIKEQLQETQGLCEYAIYVQALIFRLEGNIQESLELFQTCAVLSPQSADNLKQVARSLFLLGKHKAAIEVYNEAAKLNQKDWEISHNLGVCYIYLKQFNKAQDQLHNALNLNRHDLTYIMLGKIHLLEGDLDKAIEVYKKAVEFSPENTELLTTLGLLYLQLGIYQKAFEHLGNALTYDPTNYKAILAAGSMMQTHGDFDVALTKYRVVACAVPESPPLWNNIGMCFFGKKKYVAAISCLKRANYLAPFDWKILYNLGLVHLTMQQYASAFHFLSAAINFQPKMGELYMLLAVALTNLEDIENAKRAYAEAVHLDKCNPLVNLNYAVLLYNQGEKKNALAQYQEMEKKVSLLKDNSSLEFDSEMVEMAQKLGAALQVGEALVWTKPVKDPKSKHQTTSTSKPASFQQPLGSNQALGQAMSSKAAYRTLPSGAGGTSQFTKPPSLPLEPEPAVESSPTETSEQIREK [A475K],with no effect
5,MAEERVATRTQFPVSTESQKPRQKKAPEFPILEKQNWLIHLHYIRKDYEACKAVIKEQLQETQGLCEYAIYVQALIFRLEGNIQESLELFQTCAVLSPQSADNLKQVARSLFLLGKHKAAIEVYNEAAKLNQKDWEISHNLGVCYIYLKQFNKAQDQLHNALNLNRHDLTYIMLGKIHLLEGDLDKAIEVYKKAVEFSPENTELLTTLGLLYLQLGIYQKAFEHLGNALTYDPTNYKAILAAGSMMQTHGDFDVALTKYRVVACAVPESPPLWNNIGMCFFGKKKYVAAISCLKRANYLAPFDWKILYELGLVHLTMQQYASAFHFLSAAINFQPKMGELYMLLAVALTNLEDIENAKRAYAEAVHLDKCNPLVNLNYAVLLYNQGEKKNALAQYQEMEKKVSLLKDNSSLEFDSEMVEMAQKLGAALQVGEALVWTKPVKDPKSKHQTTSTSKPASFQQPLGSNQALGQAMSSAAAYRTLPSGAGGTSQFTKPPSLPLEPEPAVESSPTETSEQIREK [N309E],with no effect
6,MAEERVATRTQFPVSTESQKPRQKKAPEFPILEKQNWLIHLHYIRKDYEACKAVIKEQLQETQGLCEYAIYVQALIFRLEGNIQESLELFQTCAVLSPQSADNLKQVARSLFLLGKHKAAIEVYNEAAKLNQKDWEISHNLGVCYIYLKQFNKAQDQLHNALNLNRHDLTYIMLGKIHLLEGDLDKAIEVYKKAVEFSPENTELLTTLGLLYLQLGIYQKAFEHLGNALTYDPTNYKAILAAGSMMQTHGDFDVALTKYRVVACAVPESPPLWNNIGMCFFGKKKYVAAISCLKRANYLAPFDWKILYNLGLVHLTMQQYASAFHFLSAAINFQPKMGELYMLLAVALTNLEDIENAKRAYAEAVHLDKCNPLVNLNYAVLLYNQGEKKNALAQYQEMEKKVSLLKDNSSLEFDSEMVEMAQKLGAALQVGEALVWTKPVKDPKSKHQTTSTSKPASFQQPLGSNAALGQAMSSAAAYRTLPSGAGGTSQFTKPPSLPLEPEPAVESSPTETSEQIREK [Q466A],with no effect

# Reference: IntAct's records for PubMed 29039417
